We go through one molecule from patent publication US20160200789A1, “IL4 CONJUGATED TO ANTIBODIES AGAINST EXTRACELLULAR MATRIX COMPONENTS” (PHILOGEN S.P.A., priority 2013, published 2016).

In data set [1] the target is T1, EDA domain of fibronectin (Homo sapiens, UniProt P02751).
T1 construct: surface plasmon analysis (BIAcore) on an EDA antigen-coated sensor chip
As to the kind of experiment: Surface plasmon analysis (BIAcore) on EDA antigen-coated sensor chip. It is filed as binding. The text has this: The fusion protein was expressed and purified to homogeneity as described for F8-IL4 above.

In data set [2] the test system is collagen induced arthritis in DBA/1J mice. The experiment in a line: Aggressive collagen induced arthritis model, targeted vs untargeted IL4 (Example 3a). To be noted: 100 μg/injection i.v., days 1, 3 and 7. It is filed as in vivo, mouse. The procedure:
Injections were administered on day 1, 3 and 7.

Data set [3] concerns imiquimod (IMQ)-induced ear inflammation in C57BL/6 mice. As to the kind of experiment: IMQ-induced inflammation model of psoriasis. In kind it is in vivo, mouse. On the procedure:
C57BL/6 mice (Charles River, Germany) were treated on each side of each ear with 5 mg Aldara cream (containing 0.25 mg Imiquimod). The treatment schedule is illustrated in FIG. 11A. The Aldara cream was applied every day for 5 days (on day 1, 2, 3, 4 5 and […]: each application is illustrated by an asterisk in FIG. 11A). Ear thickness was measured with a caliper before the application of the cream. […] Treatment was repeated on day 9 and 11 (each treatment event is illustrated by an arrow in FIG. 11A).

Data set [4] relates to cytokine levels in ear tissue. The experiment in a line: Cytokine levels in ear tissue extracts of psoriasis models (multiplex bead flow cytometry). It is filed as in vivo, mouse. The procedure:
Ear tissue was obtained at the end of therapy from each mouse and processed to a tissue extract as previously described (Schwager et al., 2013). The end of therapy was day 13 for the IMQ model described in Example 14 and day 15 for the CHS model described in Example 15. Briefly, ears were cut into small pieces and suspended in a 50 mM Tris, 150 mM NaCl buffer containing complete protease inhibitor cocktail (Roche Diagnostics, Rotkreuz, Switzerland). For homogenization, a 5 mm stainless steel bead (Qiagen, Hombrechtikon, Switzerland) was added, and the tissue was homogenized in a QIAGEN Tissue Lyzer (4× 1 minute, 4° C., 30 Hz). After centrifugation (5 min, 4° C., 16,000 g), supernatant was harvested […]. Protein concentrations were determined by BCA assay (Thermo Fisher Scientific, IL) and total protein concentration of all samples was normalized. To quantify cytokine levels of treated and control mice, a multiplex bead-based flow cytometry analysis was performed using the mouse Th1/Th2/Th17/Th22 13plex FlowCytomix Multiplex kit (eBioscience). FACS analysis was performed on a BD FACS Canto (BD Bioscience, Allschwil, Switzerland) and data evaluated with FlowCytomix Pro 3.0 software (eBioscience). Using standard curves generated by the FlowCytomix Pro 3.0 software with control samples, a level of quantification was assigned for each cytokine.

Data set [5] has as its system experimental autoimmune encephalomyelitis (EAE) in C57/BL6 mice. As to the kind of experiment: Experimental autoimmune encephalomyelitis (EAE) model of multiple sclerosis. It is filed as in vivo, mouse. The source says: 36 C57/BL6 mice were immunized with MOG35-55/CFA and pertussis toxin by injection as reported in McCarthy et al. (2012) to induce experimental autoimmune encephalomyelitis (EAE), a model for multiple sclerosis (MS). Mice were scored daily and using a grading system from 0 to 5 reflecting progressive paralysis (McCarthy et al., 2012). Any mouse with newly developed clinical signs of EAE was assigned to one of three groups in a balanced manner. Treatment started on the day of assignment to a group (first day after EAE onset). Mice in the F8-murine IL4 treatment group (SEQ ID NO: 21) (indicated by circles in FIG. 18) received a total of three i.v. injection of 200 μg each (200 μl of a 1 mg/ml solution), every third day (see black arrows in FIG. 18). Mice in the Fingolimod (FTY720) treatment group (indicated by squares in FIG. 18) received daily oral gavage at a dose of 1 mg/kg (see open arrows in FIG. 18).

For a further data set, the system named is A20 lymphoma. As to the kind of experiment: Biodistribution and ex vivo immunofluorescence in A20 tumour-bearing mice. To be noted: after i.v. administration.
Setting [6] is: IMQ and CHS models, end of therapy.

T1 sequence (P02751 1727-1814 limits assumed): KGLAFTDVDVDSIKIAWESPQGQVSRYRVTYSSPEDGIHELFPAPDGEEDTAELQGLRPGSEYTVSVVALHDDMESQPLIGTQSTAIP

B1: F8-IL4: antibody F8 (anti-EDA of fibronectin) in diabody format fused at the C-terminus to murine interleukin 4 via 15 amino acid linker (protein)
chain: EVQLLESGGGLVQPGGSLRLSCAASGFTFSLFTMSWVRQAPGKGLEWVSAISGSGGSTYYADSVKGRFTISRDNSKNTLYLQMNSLRAEDTAVYYCAKSTHLYLFDYWGQGTLVTVSSGGSGGEIVLTQSPGTLSLSPGERATLSCRASQSVSMPFLAWYQQKPGQAPRLLIYGASSRATGIPDRFSGSGSGTDFTLTISRLEPEDFAVYYCQQMRGRPPTFGQGTKVEIKSSSSGSSSSGSSSSGHIHGCDKNHLREIIGILNEVTGEGTPCTEMDVPNVLTATKNTTESELVCRASKVLRIFYLKHGKTPCLKKNSSVLMELQRLFRAFRCLDSSISCTMNESKSTSLKDFLESLKSIMQMDYS
modifications: Synthetic sequence Amino acid sequence of F8 -(murine) IL4 of PCT/EP2014/053998
notes: antibody F8 (anti-EDA of fibronectin) in diabody format fused at the C-terminus to murine interleukin 4 via 15 amino acid linker
On to B1, for which the “affinity for the cognate antigen” value in data set [1] was “retained a high-affinity for the cognate antigen”. Moreover, the “activity in reducing arthritic score and paw swelling compared to KSF-IL4” value in data set [2] is given as “statistically significant superior activity”. Moreover, the ear thickness result in data set [3] (100 μg i.v. days 7, 9, 11, day 13, vs PBS or KSF-IL4) is on record as “significantly reduced ear thickness”. The “ear draining lymph nodes (weight)” value in data set [3] (day 13) is “smaller”. In addition, the “decrease in ear thickness from treatment initiation (day 7)” value in data set [3] (mouse, in vivo) is reported as “significantly more than in mice receiving either PBS, F8-SIP or KSF-IL4 treatment”. In data set [4] (setting [6]), the “IL2 level in ear tissue” value is reported as “do not appear to show a change in concentration”, the “IL10 level in ear tissue” value is “up-regulated”, the “IL13 level in ear tissue” value was “up-regulated” and the “IL27 level in ear tissue” value is on record as “up-regulated”. Besides, in data set [4] (IMQ-induced psoriasis model), the “IL-1 alpha level in ear tissue” value was “may be down-regulated”. For the same molecule, the “EAE severity compared with fingolimod” value in data set [5] (fingolimod 1 mg/kg daily oral gavage) is reported as “not significantly different”. Moreover, in data set [5] (three i.v. injections of 200 μg, every third day), the “EAE severity compared with PBS” value is listed as “significantly reduced EAE severity”. In addition, in the data set on A20 lymphoma, the “accumulation around tumour neo-vascular structures” value is on record as “preferential accumulation”.
